This is an account of results in patent US20250313611A1 (VIB VZW, published 2025).

For assay [1], the target named is T1, recombinant MERS-COV spike protein (MERS-CoV, UniProt K9N5Q8 18-1291).
T1 sequence: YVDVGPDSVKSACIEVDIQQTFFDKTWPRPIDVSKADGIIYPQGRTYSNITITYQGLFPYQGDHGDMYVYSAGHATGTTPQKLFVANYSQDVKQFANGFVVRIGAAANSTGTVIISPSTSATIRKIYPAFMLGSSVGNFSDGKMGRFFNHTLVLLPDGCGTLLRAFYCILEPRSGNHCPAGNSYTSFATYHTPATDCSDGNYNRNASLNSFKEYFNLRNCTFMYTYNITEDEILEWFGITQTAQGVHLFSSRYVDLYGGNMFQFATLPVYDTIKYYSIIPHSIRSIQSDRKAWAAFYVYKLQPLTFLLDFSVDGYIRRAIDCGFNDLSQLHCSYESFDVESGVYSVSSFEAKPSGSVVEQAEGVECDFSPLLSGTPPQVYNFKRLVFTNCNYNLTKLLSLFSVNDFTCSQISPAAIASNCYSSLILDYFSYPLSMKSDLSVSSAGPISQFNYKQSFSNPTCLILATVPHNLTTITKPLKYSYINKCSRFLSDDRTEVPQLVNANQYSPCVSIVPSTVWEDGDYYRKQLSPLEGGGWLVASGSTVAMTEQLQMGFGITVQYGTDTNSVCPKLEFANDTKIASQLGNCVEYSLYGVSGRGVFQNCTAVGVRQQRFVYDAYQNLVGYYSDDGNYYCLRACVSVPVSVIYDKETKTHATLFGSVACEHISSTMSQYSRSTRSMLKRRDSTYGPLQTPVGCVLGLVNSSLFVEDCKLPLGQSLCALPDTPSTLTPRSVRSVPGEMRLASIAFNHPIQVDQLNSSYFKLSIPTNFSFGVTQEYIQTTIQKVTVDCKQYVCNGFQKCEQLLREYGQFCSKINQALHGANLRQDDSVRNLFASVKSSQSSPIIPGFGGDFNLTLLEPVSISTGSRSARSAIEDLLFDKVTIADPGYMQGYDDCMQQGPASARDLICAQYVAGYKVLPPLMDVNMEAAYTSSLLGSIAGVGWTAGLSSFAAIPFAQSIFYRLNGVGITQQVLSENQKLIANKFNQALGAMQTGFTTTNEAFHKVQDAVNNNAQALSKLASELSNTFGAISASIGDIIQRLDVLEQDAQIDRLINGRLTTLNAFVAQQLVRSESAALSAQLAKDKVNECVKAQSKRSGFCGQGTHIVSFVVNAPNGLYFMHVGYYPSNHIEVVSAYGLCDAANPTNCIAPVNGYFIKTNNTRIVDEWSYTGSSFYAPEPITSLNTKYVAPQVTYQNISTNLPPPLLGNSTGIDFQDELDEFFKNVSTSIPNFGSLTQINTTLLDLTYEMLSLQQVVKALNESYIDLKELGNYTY
The assay can be described thus: ELISA, periplasmic extract 1/10, heat map of binding (%).

In assay [2] the target is T2, recombinant HKU1 spike protein (HCoV-HKU1, UniProt Q5MQD0 13-1276).
T2 sequence: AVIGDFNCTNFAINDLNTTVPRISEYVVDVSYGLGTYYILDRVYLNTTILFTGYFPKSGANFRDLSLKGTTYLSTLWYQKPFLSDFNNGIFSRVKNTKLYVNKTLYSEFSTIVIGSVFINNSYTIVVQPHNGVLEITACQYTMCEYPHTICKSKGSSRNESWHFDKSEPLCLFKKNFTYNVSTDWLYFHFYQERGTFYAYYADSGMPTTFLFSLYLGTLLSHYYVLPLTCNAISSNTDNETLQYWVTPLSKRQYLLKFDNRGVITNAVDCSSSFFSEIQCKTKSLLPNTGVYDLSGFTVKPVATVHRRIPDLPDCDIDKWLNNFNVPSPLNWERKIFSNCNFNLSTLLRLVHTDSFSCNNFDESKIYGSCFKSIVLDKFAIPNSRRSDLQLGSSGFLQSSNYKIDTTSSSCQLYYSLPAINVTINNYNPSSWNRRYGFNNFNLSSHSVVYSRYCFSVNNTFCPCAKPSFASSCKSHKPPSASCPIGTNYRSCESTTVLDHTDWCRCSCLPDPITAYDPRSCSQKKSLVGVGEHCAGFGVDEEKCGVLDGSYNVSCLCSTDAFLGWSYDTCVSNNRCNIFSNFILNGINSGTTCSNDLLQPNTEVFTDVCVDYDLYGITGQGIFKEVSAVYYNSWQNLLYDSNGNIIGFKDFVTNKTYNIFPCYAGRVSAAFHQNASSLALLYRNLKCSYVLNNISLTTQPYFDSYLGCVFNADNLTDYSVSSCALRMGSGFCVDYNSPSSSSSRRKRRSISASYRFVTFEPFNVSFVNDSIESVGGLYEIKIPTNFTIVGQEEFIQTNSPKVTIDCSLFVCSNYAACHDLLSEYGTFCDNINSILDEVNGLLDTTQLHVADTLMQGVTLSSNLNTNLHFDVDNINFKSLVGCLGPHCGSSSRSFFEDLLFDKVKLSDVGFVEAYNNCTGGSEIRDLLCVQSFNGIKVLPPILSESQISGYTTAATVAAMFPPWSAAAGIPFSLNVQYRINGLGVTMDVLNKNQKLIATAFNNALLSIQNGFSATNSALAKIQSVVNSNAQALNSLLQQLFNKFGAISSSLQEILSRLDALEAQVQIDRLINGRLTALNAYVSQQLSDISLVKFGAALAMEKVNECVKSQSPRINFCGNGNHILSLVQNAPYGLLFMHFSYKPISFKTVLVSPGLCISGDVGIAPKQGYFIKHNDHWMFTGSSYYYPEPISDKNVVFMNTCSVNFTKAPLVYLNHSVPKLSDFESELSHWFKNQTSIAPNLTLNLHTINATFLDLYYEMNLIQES
The description is as above.

B1: VHH R3_C4 (VHH)
VHH: QVQLQESGGGLVQAGDSLRLSCAVSGRPFSTYTMGWFRQAPGKEREFVAAMRWSGGTIYYADSVKGRFTISRDNDKNTVNLEMNSLKPEDTAVYYCAAAYVSKANYGSLWYRASGLYDYWGQGTQVTVSS
Turning to B1, the binding result is listed as “no binding (tested: extract 1/10, concentration not given)” in assay [1] and “no binding (tested: extract 1/10, concentration not given)” in assay [2].

B2: VHH R4_DC16 (VHH)
VHH: QVQLQESGGGLVQAGDSLRLSCAVSGRPFSTYTMGWFRQAPGKEREFVAAMRWSGGTIYYADSVKGRFTISRDNAQNTVNLQMNSLKPEDTAVYYCAAAYVSKANYGSSWYRNSGLYDYWGQGTQVTVSS
As to B2, the binding result is “no binding (tested: extract 1/10, concentration not given)” in assay [1] and “no binding (tested: extract 1/10, concentration not given)” in assay [2].

B3: VHH R4_DC20 (VHH)
VHH: QVQLQESGGGLVQTGDSLRLSCAVSGRPFSTYTMGWFRQAPGKEREFVASMRWSGGTMNYADSVKGRFTISRDNDQNTVNLQMNSLKPEDTAVYYCAAAYVSKANYGSLWYRNSGLYDYWGQGTQVTVSS
Consider B3, for which the binding result in assay [1] is on record as “no binding (tested: extract 1/10, concentration not given)”; in assay [2], “no binding (tested: extract 1/10, concentration not given)”.

B4: VHH R4_DC9 (VHH)
VHH: QVQLQESGGGLVQAGDSLRLSCAASGRIFSTYTMGWFRQAPGMEREFVAAIRWSGSTVYYADSVKGRFTISRDNAKNTVYLQMNSLKPEDTAVYYCAAARVSKANYGTLWYRASGLYDYWGQGTQVTVSS
As to B4, the binding result is given as “no binding (tested: extract 1/10, concentration not given)” in assay [1] and “no binding (tested: extract 1/10, concentration not given)” in assay [2].

B5: VHH R4_DC13 (VHH)
VHH: QVQLQESGGGLVQTGDSLRLSCAVSGRPFSTYTMGWFRQAPGKEREFVASMRWSGGTVYYSDSVKGRFTISRDNDKNTVNLQMNNLKPEDTAVYYCAAAYVSKANYGSFWYRNSDLYDYWGQGTQVTVSS
Consider B5, for which the binding result in assay [1] was “no binding (tested: extract 1/10, concentration not given)”; in assay [2], “no binding (tested: extract 1/10, concentration not given)”.

B6: VHH R3_DC9 (VHH)
VHH: QVQLQESGGGLVQTGDSLRLSCAVSGRPFSTYTMGWFRQAPGKEREFVASMRWSGGTMYYSDSVKGRFTISRDNDKNTVNLQMNSLKPEDTAVYYCAAAYVSKANYGSLWYRNSGLYDYWGQGTQVTVSS
For the molecule B6, the binding result is given as “no binding (tested: extract 1/10, concentration not given)” in assay [1] and “no binding (tested: extract 1/10, concentration not given)” in assay [2].

B7: VHH R3_DC2 (VHH)
VHH: QVQLQESGGGLVQTGDSLRLSCAVSGRPFSTYTMGWFRQAPGKEREFVASMRWSGGTKYYSDSVKGRFSISRDNDQNTVNLQMNSLKPEDTAVYYCAAAYVSKANYGSLWYRNSGLYDYWGQGTQVTVSS
As for B7, the binding result in assay [1] is recorded as “no binding (tested: extract 1/10, concentration not given)”; in assay [2] it was “no binding (tested: extract 1/10, concentration not given)”.

B8: VHH R3_DC20 (VHH)
VHH: QVQLQESGGGLVQAGDSLRLSCAVSGRPFSTYTMGWFRQAPGKEREFVAAMRWSGGTIYYADSVKGRFTISRDNAQNTVNLQMNSLEPEDTAVYYCAAAYVSKANYGSLWYRNSGLYDYWGQGTQVTVSS
As for B8, the binding result in assay [1] was “no binding (tested: extract 1/10, concentration not given)”; in assay [2] it was “no binding (tested: extract 1/10, concentration not given)”.

B9: VHH R4_DC6 (VHH)
VHH: QVQLQESGGGLVQAGDSLRLSCAASGRILSTFTMGWFRQAPGKEREFVAAMRWNGGTKNYADSVKGRFTISRDNANSVVYLQMNSTKPEDTAVYYCAAAYVSKANYGSLWYRTPSLYDYWGQGTQVTVSS
Consider B9, for which the binding result in assay [1] is reported as “no binding (tested: extract 1/10, concentration not given)”; in assay [2], “no binding (tested: extract 1/10, concentration not given)”.

B10: VHH R3_DC23 (VHH)
VHH: QVQLQESGGGLVQAGDSLTLSCAVSGRIFSTYTMGWFRQAPGKEREFVAAVRWGAGTIYYADSMKGRFTISRDSAKNTVDLQMNSTKPEDTAVYYCGAAYVSKANYGSLWYQDSRRYDYWGQGTQVTVSS
As to B10, the binding result in assay [1] is listed as “no binding (tested: extract 1/10, concentration not given)”; in assay [2], “no binding (tested: extract 1/10, concentration not given)”.
